Assay results reported in patent US20090053196A1 (LUDWIG MAXIMILLIANS UNIVERSITAT MUNCHEN, published 2009).

Tests used:
[1] = molecular target: T1, myc-tagged HSP-1 (^mycHSP-1) (Caenorhabditis elegans, UniProt P09446 1-640); experiment: summary sentence of Example 5 on the earlier binding assays
T1 construct: Bacterially expressed from pET-^mycHSP-1; also called C. elegans Hsp70 homolog; Hsp70 ortholog HSP-1; not shown: N-terminal myc tag introduced 5' of the cDNA by PCR (pET21a)
Protocol: (§1) Binding of UNC-45^FLAG, ^mycCHN-1, ^mycCHN-1^ΔU-box, ^mycCHN-1^ΔTPR, ^mycCHN-1^Δ, ^mycUFD-2, ^mycUFD-2^{ΔU-box,} ^mycHSP-1 to GST-UFD-2 or GST-CHN-1 was done in buffer A [10 mM Tris pH 8, 10 mM DTT, Complete protease inhibitors (Boehringer)]+150 mM NaCl at 4° C. for 60 min. Glutathione-Sepharose beads were washed at least five times in buffer A with 0.1% Triton X-100 and 150 mM NaCl and bound proteins were eluted with SDS-PAGE sample buffer. Sonicated lysates from wild-type worms expressing the transgene P_unc-54::unc-45^FLAG were incubated with anti-FLAG M2-agarose beads (Sigma) in 50 mM Tris/HCl (pH 8.0), 100 mM NaCl, 10% glycerol, 1% Triton X-100 and 5 mM PMSF at 4° C. for 3 hours. Samples were precipitated with protein G-agarose beads (Amersham Pharmacia). Immunoprecipitates were washed at least five times in the same lysis buffer, were eluted with SDS-PAGE sample buffer and were separated by SDS gel electrophoresis followed by Western blotting using anti-FLAG M2 monoclonal antibodies (Sigma) or anti-Ubiquitin monoclonal antibodies (Chemicon).

[2] = molecular target: T2, GST (UniProt P08515 1-218 = GST); experiment: GST pull-down with glutathione-Sepharose beads
T2 construct: Negative control of the pull-down experiments; also called GST alone; immobilized GST
Protocol: (C) Complex of CHN-1, UFD-2 and UNC-45. GST-UFD-2 was incubated with purified FLAG-tagged UNC-45 (UNC-45^FLAG) and myc-tagged CHN-1 (^mycCHN-1) together, ^mycCHN-1 or UNC-45^FLAG alone and pulled down with glutathione-Sepharose beads. GST alone with UNC-45^FLAG and ^mycCHN-1 served as the negative control.
as §1

[3] = molecular target: T3, FLAG-tagged UNC-45 (UNC-45^FLAG) (Caenorhabditis elegans); experiment: GST pull-down, equimolar GST-UFD-2 or GST-CHN-1 with identical amounts of purified UNC-45
T3 construct: Purified as described in Barral 2002; also called ^FLAGUNC-45; purified UNC-45
Protocol: (B) In vitro binding of UNC-45 by UFD-2 or CHN-1. Equimolar amounts of GST-UFD-2 and GST-CHN-1 were incubated with the same amount of purified FLAG-tagged UNC-45 (UNC-45^FLAG) and pulled down with glutathione-Sepharose beads. GST alone with UNC-45^FLAG served as the negative control.
Binding of UNC-45^FLAG, ^mycCHN-1, ^mycCHN-1^ΔU-box, ^mycCHN-1^ΔTPR, ^mycCHN-1^Δ, ^mycUFD-2, ^mycUFD-2^{ΔU-box,} ^mycHSP-1 to GST-UFD-2 or GST-CHN-1 was done in buffer A [10 mM Tris pH 8, 10 mM DTT, Complete protease inhibitors (Boehringer)]+150 mM NaCl at 4° C. for 60 min. Glutathione-Sepharose beads were washed at least five times in buffer A with 0.1% Triton X-100 and 150 mM NaCl and bound proteins were eluted with SDS-PAGE sample buffer. […]
To compare their binding efficiencies, pull-down experiments were performed using equimolar amounts of GST-UFD-2 or GST-CHN-1 with identical amounts of purified UNC-45. […] Binary mixtures containing immobilized UFD-2 and either UNC-45 or CHN-1, and a ternary mixture containing all three proteins were set up and the resulting complexes analyzed by SDS-polyacrylamide gel electrophoresis. Approximately equimolar complexes were detected between UFD-2 and both CHN-1 and UNC-45 in the binary mixtures and among the three proteins in the ternary mixture. […]

T2 sequence (P08515 whole entry): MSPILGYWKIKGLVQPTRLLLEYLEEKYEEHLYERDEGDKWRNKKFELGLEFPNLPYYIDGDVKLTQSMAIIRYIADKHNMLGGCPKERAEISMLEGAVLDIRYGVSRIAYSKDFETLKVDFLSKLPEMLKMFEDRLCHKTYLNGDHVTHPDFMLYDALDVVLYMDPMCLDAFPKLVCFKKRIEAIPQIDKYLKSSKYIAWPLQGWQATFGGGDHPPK
T1 sequence (P09446 whole entry): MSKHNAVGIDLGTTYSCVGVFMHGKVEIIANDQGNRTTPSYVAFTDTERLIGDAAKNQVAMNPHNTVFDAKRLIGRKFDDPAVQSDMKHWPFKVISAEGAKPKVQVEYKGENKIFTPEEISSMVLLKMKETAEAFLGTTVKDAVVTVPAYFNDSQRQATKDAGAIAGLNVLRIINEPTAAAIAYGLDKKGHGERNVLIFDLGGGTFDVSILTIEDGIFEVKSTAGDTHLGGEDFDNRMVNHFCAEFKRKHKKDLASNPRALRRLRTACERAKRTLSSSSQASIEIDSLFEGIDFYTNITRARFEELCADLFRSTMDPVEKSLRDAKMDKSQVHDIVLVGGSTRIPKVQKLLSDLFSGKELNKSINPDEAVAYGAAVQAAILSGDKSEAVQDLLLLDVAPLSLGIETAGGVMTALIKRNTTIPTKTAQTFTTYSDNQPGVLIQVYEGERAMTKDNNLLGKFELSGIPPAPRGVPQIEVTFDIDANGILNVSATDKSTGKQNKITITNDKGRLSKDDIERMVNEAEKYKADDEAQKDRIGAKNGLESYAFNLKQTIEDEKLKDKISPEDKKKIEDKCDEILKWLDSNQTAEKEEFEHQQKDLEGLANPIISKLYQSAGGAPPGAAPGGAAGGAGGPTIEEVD

B1: GST-CHN-1 (enzyme)
chain: MSSGAEQHNTNGKKCYMNKRYDDAVDHYSKAIKVNPLPKYYQNRAMCYFQLNNLKMTEEDCKRALELSPNEVKPLYFLGNVFLQSKKYSEAISCLSKALYHNAVITNAPDIENALKRARHQKYEEEESKRIVQDVEFHTYLESLIEKDRQENSENPEELQRADMAKKRLTELTLATQEKRQNREVPEMLCGKITLELMKEPVIVPSGITYDREEIVQHLRRIGHFDPVTRKPLTENEIIPNYALKEVIEKFLDDNPWAKYEPGGMV
notes: GST fusion from pGEX-CHN-1, purified from E. coli; also called GST-tagged version of CHN-1; not shown: glutathione S-transferase (GST) encoded by vector pGEX4T1
binding result [1]: binds

B2: myc-tagged CHN-1 (^mycCHN-1) (enzyme)
chain: B1 chain
notes: Full-length CHN-1, bacterially expressed from pET-^mycCHN-1; also called C. elegans CHIP ortholog; not shown: N-terminal myc tag introduced 5' of the cDNA by PCR (pET21a)
binding result [2]: no binding

B3: GST-UFD-2 (enzyme, Caenorhabditis elegans, UniProt Q09349 1-984, looked up)
chain: MIEDEKAGLQPMDISDASVFFFQADVESKDFLTSLFDCEGKSDDRMLRYADAIIDVQNLNFDVSPQCLQSNIAEIITKFVLLSQDGSRRGLSRSFNFIDPDIIAGCREEDAIEFLLINFVRCHHELGKSGTSNCYKKTLESTRKAVFSVFVMIQRGYLESQLRSQHASLVFTKRLLEDTVSNVFLRTLVEYLASTDECDEDAITETFNPIFGILRSGIICQRFEDNKDEIVRQILRVMNLLLSIRLPSNGPRPLSNLLVNREDFLPTPSEKIQGREFGLMSFLGPFFSYGLESSARRPNHRVFVDCEEDARKYDGSVNTEQKLYFQRMDPIRTMLHQLMLPLASDQGSRNKTLRWIATIISTNDIRTRSHYDPSDVLCDHYMTNFLSVMYMFSEKIDLSKIIVDYPFLPSSLINISKETRLKMDESGAVAFASQFADRPDEYHFSTVCFFLTIAAQRLVIPPLMNQISEYSRHLKELKHKINALKEKLNTVSGFERAEVEKKLNYETEHWKLMSRHLLCVKTQAQDPALMASSMDFVDKQMKFILNLLCDNLDLLGDDSQLPTEVSQMFCALPEYFLEDALDFYIFAISNGMKLLMERNADWISRLTVLFTQYHYIKSPFLVSKLVRVLSSIQPPLWFNVVRLRMAQENLLMCMIKFYSDFEDNGDFYEKFNVRGNIQYMLEKMEEDMFYKGKFMDMARECGAEFIRFVNMVINDATWCIDESLSGLKSIHDVEKKMANKVEWDNTDQEIRNQDLGVYEEAKRKVKGWLGTAKSNLKLLLSITVNSPEPFRTPVLGERLAAMLNHNLSQLIGSKASELKVKDPRSYGWEPREFVSLLISIYLKLNMPAFVKYIAYDERTYSPEFFHNAIECMRKNSIVGFSQLESFEHLAEDVKKEYEAKAELEEEYDDVPEEFKDPIMDAIMVDPVKLPSGHVMDRAVIERHLLSTPNNPFNRAPLSHNELSPDSELKAKIQEWICQKRNSKK
notes: GST fusion from pGEX-UFD-2, purified from E. coli; also called immobilized GST-UFD-2; not shown: glutathione S-transferase (GST) encoded by vector pGEX4T1
fold more UNC-45 bound than by GST-CHN-1 [3]: ~20 fold
